For assay [1], the target named is T1, PEAR1 ectodomain, monomeric biotinylated bait (human, UniProt Q5VY43 21-755, biotin (on the biotinylatable peptide tag)).
T1 chain: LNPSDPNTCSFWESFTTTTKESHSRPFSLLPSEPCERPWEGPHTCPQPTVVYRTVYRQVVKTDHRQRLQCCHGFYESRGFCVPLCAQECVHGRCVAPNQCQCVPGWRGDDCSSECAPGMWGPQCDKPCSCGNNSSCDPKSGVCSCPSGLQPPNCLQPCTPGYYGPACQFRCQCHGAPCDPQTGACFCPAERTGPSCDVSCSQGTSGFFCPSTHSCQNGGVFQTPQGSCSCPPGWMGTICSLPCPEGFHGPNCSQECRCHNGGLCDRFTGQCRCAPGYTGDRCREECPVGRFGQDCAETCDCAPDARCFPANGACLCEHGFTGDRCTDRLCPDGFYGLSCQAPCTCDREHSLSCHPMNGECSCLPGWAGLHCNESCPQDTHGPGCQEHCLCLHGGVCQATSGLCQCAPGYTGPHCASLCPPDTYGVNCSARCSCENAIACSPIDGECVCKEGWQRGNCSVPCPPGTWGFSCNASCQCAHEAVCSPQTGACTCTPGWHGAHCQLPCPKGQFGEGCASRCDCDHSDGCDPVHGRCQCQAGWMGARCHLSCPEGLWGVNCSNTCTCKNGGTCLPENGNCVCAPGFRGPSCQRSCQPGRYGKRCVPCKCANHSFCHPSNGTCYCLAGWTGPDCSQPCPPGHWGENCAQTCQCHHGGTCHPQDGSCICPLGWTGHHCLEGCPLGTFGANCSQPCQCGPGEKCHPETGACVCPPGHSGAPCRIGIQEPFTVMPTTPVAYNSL
As to the kind of experiment: SPR; kinetic analysis. On the technique in general: Surface plasmon resonance follows binding to a sensor surface in real time, without labels.

Assay [2] deals with T2, PEAR1 ectodomain, monomeric biotinylated bait (human, UniProt Q5VY43 21-755, biotin (on the biotinylatable peptide tag)).
T2 construct: human platelet endothelium aggregation receptor 1 (PEAR1), whole ectodomain; also called PEAR1 bait; immobilized PEAR1; source: HEK293E, transient transfection, purified (Ni2+-NTA via His6)
T2 sequence (looked up): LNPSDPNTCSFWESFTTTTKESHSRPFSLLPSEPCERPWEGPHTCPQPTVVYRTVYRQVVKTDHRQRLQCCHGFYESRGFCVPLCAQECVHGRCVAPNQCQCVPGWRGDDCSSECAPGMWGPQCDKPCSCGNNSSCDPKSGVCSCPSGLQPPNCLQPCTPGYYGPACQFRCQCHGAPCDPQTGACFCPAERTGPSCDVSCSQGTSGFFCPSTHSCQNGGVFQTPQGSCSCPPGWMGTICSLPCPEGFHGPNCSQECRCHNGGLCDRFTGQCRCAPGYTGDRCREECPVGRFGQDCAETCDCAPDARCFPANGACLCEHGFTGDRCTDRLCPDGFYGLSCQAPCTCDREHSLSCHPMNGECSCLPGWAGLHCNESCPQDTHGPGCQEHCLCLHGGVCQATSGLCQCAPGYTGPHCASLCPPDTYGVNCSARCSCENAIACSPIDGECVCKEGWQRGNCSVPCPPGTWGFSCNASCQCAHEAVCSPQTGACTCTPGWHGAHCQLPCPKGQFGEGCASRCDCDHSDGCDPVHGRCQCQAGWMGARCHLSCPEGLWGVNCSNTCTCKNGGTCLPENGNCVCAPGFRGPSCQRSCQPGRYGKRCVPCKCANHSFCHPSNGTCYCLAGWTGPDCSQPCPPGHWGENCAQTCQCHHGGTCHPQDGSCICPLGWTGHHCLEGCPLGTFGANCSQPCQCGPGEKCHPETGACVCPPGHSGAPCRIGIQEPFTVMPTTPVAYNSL
As to the kind of experiment: SPR; Biacore T100; PEAR1 immobilised; gel-filtered monomeric FcεR1α-Cd4-His6 serially diluted and injected at 10 μl/min until equilibrium; reference-subtracted; equilibrium analysis. As to conditions: both partners purified.

The target in assay [3] is T2, PEAR1 ectodomain, monomeric …. As to the kind of experiment: SPR; Biacore T100; PEAR1 immobilised; seven serial dilutions of FcεR1α-Cd4-His6 injected at 100 μl/min; kinetic analysis, 1:1 binding model. The conditions noted are these: both partners purified.

B1: FcεR1α-Cd4-His6, purified monomeric soluble protein (receptor, human, UniProt P12319 26-205, looked up)
chain: VPQKPKVSLNPPWNRIFKGENVTLTCNGNNFFEVSSTKWFHNGSLSEETNSSLNIVNAKFEDSGEYKCQHQQVNESEPVYLEVFSDWLLLQASAEVVMEGQPLFLRCHGWRNWDVYKVIYYKDGEALKYWYENHNISITNATVEDSGTYYCTGKVWQLDYESEPLNITVIKAPREKYWLQ
notes: also called soluble FcεR1α-Cd4-His6; source: HEK293E, transient transfection, purified (His6), resolved by gel filtration just prior to use
Regarding B1, in assay [1], the koff was found to be 0.0788 s⁻¹. Also, the Kd in assay [2] amounted to 27.4 ± 1.3 nM. In assay [3], the “stoichiometry N” value was determined as 1.

As a reminder, the koff is the first-order rate constant of dissociation. Low values mean a long-lived complex, high ones a short-lived complex. The Kd is the equilibrium constant for the complex coming apart. The low end stands for higher affinity, the high end for lower affinity. One may read the stoichiometry N as the number of molecules, sites or subunits per partner or assembly.

The values are drawn from article PMC4424398, “A Human Platelet Receptor Protein Microarray Identifies the High Affinity Immunoglobulin E Receptor Subunit α (FcεR1α) as an Activating Platelet Endothelium Aggregation Receptor 1 (PEAR1) Ligand* ^([image sbox.jpg])” (Molecular & Cellular Proteomics : MCP, 2015).
